Reference: patent US7901879B2, “Lactoferrin in the treatment of malignant neoplasms and other hyperproliferative diseases” (Agennix Incorporated, priority 2002, dated 2011)
Values joined by “and” are separate entries in the source; they are usually repeats but may differ in a detail not shown here. Equal values may be shown once. Marks after values point to notes of the source that are not given here.

Experiments:
[1] = test system: O12 human oropharyngeal squamous cell carcinoma tumor cells; assay: Intratumoral rhLF in O12 tumors in nude mice (Example 17); assay type: in vivo, athymic nude mice
Protocol: O12 human oropharyngeal squamous cell carcinoma tumor cells were injected to the right flank of athymic nude mice. Recombinant human lactoferrin and vehicle controls were dosed via intratumoral injection. Each animal was administered different concentrations of rhLF in 50 μL doses consisting of four separate injections of approximately 12.5 μL of the dose, at different directions and angles (approximately S/N/E/W) to ensure that the dose was distributed evenly throughout the tumor (fanning).
In this study, rhLF was administered directly into the tumor. Each animal was tracked daily for tumor growth by external caliper measurements of the protruding tumor.

metastatic cancer = assay: Oral rhLF in human patients with metastatic cancer, tumor size by CT; assay type: in vivo
Protocol: Recombinant human lactoferrin was orally administered to human patients with a range of metastatic cancer types that had failed standard chemotherapy in two different studies conducted in multiple centers in four countries (Argentina, Brazil, Chile, U.S.) RhLF was administered at doses of 1.5 to 9 grams daily in two divided doses in cycles of 14 each with a 14 day gap.
Tumor size progression was monitored through CT scans and tumor markers where available. CT scans were performed at baseline and after each 8-week period once treatment was initiated, and also compared with a pre-baseline scan conducted prior to enrollment in the study. Tumor markers are measured every 4 weeks. Blood samples were collected to measure subclasses of circulating lymphocytes and NK cell activity. Plasma, serum and blood cell extract samples were collected to measure circulating IL-18, IL-1, IL-2, and IL-4, IL-5, IL-10, IL-12 and IFN-γ.

[2] = test system: murine squamous carcinoma cell line (SCCVII); assay: SCCVII tumor growth, oral rhLF and/or radiotherapy (Example 9); assay type: in vivo, immunocompetent C3H mice
Protocol: A murine squamous carcinoma cell line (SCCVII) was injected into the floor of mouth through the neck skin of immunocompetent C3H mice (Day 0). […] Tumors were measured in three dimensions with calipers.
Tumor-bearing mice were randomized into six groups receiving rhLF (200 mg/Kg) and/or radiotherapy as described below. RhLF (4 mg; 200 mg/kg) was administered by oral gavage once daily for 8 days on days 5 through 12. Radiotherapy was administered as single dose of 2 Gray given at the beginning (day 5) or at during (day 8) rhLF-therapy. Animals were sacrificed on day 14 post-treatment and the residual tumor masses were measured and processed for later additional analyses.

IL-18 = IL-18 levels in small intestine and serum after oral rhLF or bLF (cytokine ELISA); assay type: in vivo, mice; details: for IL-18 Intestinal Extract / IL-18 Serum: 24 h after last dose
Protocol: Recombinant human lactoferrin and bovine lactoferrin were orally administered to mice, and the production of IL-18 in the small intestine was measured.
Mice were treated for three days daily with 65 mg/kg/day of rhLF, 300 mg/kg/day of rhLF or 300 mg/kg/day of bLF. For a control, mice were only administered the pharmaceutical carrier. Twenty-four hours following administration of the LF or control for 3 days, animals were weighed and blood and serum were collected. Serum was used for cytokine ELISA assays.
Also, at these time points, animals were sacrificed and the small intestinal tissue was removed for further analysis. Small intestinal epithelium was homogenized using a lysis buffer consisting of PBS, 1% Nonidet P-40, 0.5% sodium deoxycholate, and 0.1% sodium dodecyl sulphate containing 10 μg/ml PhenylMetheylsulfonyl fluoride. Homogenate was centrifuged at 15,000 rpm for 10 minutes and the supernatant stored at −80 C. till it was tested for IL-18 levels.

[3] = test system: NK-activity against YAC targets; assay: Ex vivo NK activity of spleen NK cells against YAC targets (LDH release) after oral rhLF; assay type: in vivo, Balb/c naïve mice; details: for % Cytotoxicity Increased over ctrl: rhLF minus placebo; for % Cytotoxicity Final: oral 300 mg/kg/day 3 days
Protocol: Balb/c naïve mice were treated orally with rhLF or placebo once a day for 3 days (see Table 4).
(§1) On day 4, mice were sacrificed and spleens were collected. NK cells were separated using a magnetic bead cell sorting assay (MACS anti-NK-DX5) and counted. Cells were then tested in vitro for NK-activity against YAC targets using a lactate dehydrogenase (LDH) release test.
as §1, with “Balb/c naïve mice were treated orally with rhLF or placebo once a” for “On”, “for 3 days. One day later (day 4),” for “4,”, “spleens” for “spleens were”

circulating lymphocytes = assay: Circulating lymphocytes after intratumoral rhLF in tumor-bearing mice (Example 18); assay type: in vivo, C3H/HeJ mice
Protocol: Normal C3H/HeJ mice were implanted with one of two mouse tumors following the methodology described in Example 17. Tumors used were SCCVII and RIF mouse tumor cell lines. Following establishment of the tumors in the mice, tumors were injected intratumorally daily for 4 days with 250 or 500 μg rhLF per dose or with vehicle control. Twenty four hours following the last intratumoral injection, animals were sacrificed and the blood examined for lymphocyte populations. The number of circulating lymphocytes were increased by 34% to 56% relative to the placebo treated control animals (Table 14).

[4] = oral 65 mg/kg rhLF versus 300 mg/kg bLF
[5] = oral 65 mg/kg/day for three days
[6] = oral 300 mg/kg rhLF versus 300 mg/kg bLF
[7] = oral 300 mg/kg/day for three days
[8] = oral, rhLF at both doses, bLF 300 mg/kg/day
[9] = intratumoral 250 or 500 μg per dose daily for 4 days, blood 24 h after last injection

B1: Recombinant human lactoferrin (protein, UniProt P02788 20-710, looked up)
Lactotransferrin: GRRRSVQWCAVSQPEATKCFQWQRNMRKVRGPPVSCIKRDSPIQCIQAIAENRADAVTLDGGFIYEAGLAPYKLRPVAAEVYGTERQPRTHYYAVAVVKKGGSFQLNELQGLKSCHTGLRRTAGWNVPIGTLRPFLNWTGPPEPIEAAVARFFSASCVPGADKGQFPNLCRLCAGTGENKCAFSSQEPYFSYSGAFKCLRDGAGDVAFIRESTVFEDLSDEAERDEYELLCPDNTRKPVDKFKDCHLARVPSHAVVARSVNGKEDAIWNLLRQAQEKFGKDKSPKFQLFGSPSGQKDLLFKDSAIGFSRVPPRIDSGLYLGSGYFTAIQNLRKSEEEVAARRARVVWCAVGEQELRKCNQWSGLSEGSVTCSSASTTEDCIALVLKGEADAMSLDGGYVYTAGKCGLVPVLAENYKSQQSSDPDPNCVDRPVEGYLAVAVVRRSDTSLTWNSVKGKKSCHTAVDRTAGWNIPMGLLFNQTGSCKFDEYFSQSCAPGSDPRSNLCALCIGDEQGENKCVPNSNERYYGYTGAFRCLAENAGDVAFVKDVTVLQNTDGNNNEAWAKDLKLADFALLCLDGKRKPVTEARSCHLAMAPNHAVVSRMDKVERLKQVLLHQQAKFGRNGSDCPDKFCLFQSETKNLLFNDNTECLARLHGKTTYEKYLGPQYVAGITNLKKCSTSPLLEACEFLRK
notes: human lactoferrin produced recombinantly
[1]; Group A, single intratumoral dose, day 11 after administration, p<0.05
  reduction of rates of tumor growth versus pooled placebo: 50%
[1]; Group C, intratumoral twice daily for 8 days, p<0.01
  reduction of rates of tumor growth versus pooled control group: 56%
Metastatic cancer; Patient # 007, Lung, 7.5 weeks, pretreatment 160% (5.5 weeks)
  Post Treatment 1 % Growth: 13% (7.5)
Metastatic cancer; Patient # 007, Lung, 8.5 weeks
  Post Treatment 2 % Growth: 12% (8.5)
Metastatic cancer; Patient # 102, Ovarian, 8.5 weeks
  Post Treatment 2 % Growth: −7% (8.5)
Metastatic cancer; Patient # 102, Ovarian, 10.5 weeks, pretreatment 30% (21 weeks)
  Post Treatment 1 % Growth: −5% (10.5)
Metastatic cancer; Patient # 104, Gastric, 7 weeks
  Post Treatment 2 % Growth: −5% (7)
Metastatic cancer; Patient # 104, Gastric, 10 weeks, pretreatment 25% (5.5 weeks)
  Post Treatment 1 % Growth: 10% (10)
Metastatic cancer; Patient # 106, Melanoma, 11 weeks, pretreatment 24% (19 weeks)
  Post Treatment 1 % Growth: −18% (11)
Metastatic cancer; Patient # 204, Breast, 6.5 weeks
  Post Treatment 2 % Growth: 0% (6.5)
Metastatic cancer; Patient # 204, Breast, 10 weeks, pretreatment 40% (8 weeks)
  Post Treatment 1 % Growth: 0% (10)
Metastatic cancer; nine of nineteen evaluable patients, oral 1.5 to 9 grams daily
  patients with stable disease by the RECIST criteria at the first post-treatment scan: 47%
[2]; both rhLF/Rad groups pooled (D/F)
  Inhibition Relative to Placebo: 67%
[2]; rhLF 200 mg/kg oral days 5-12 plus radiation 2 Gray on day 5
  Inhibition Relative to Placebo: 68%
[2]; rhLF 200 mg/kg oral days 5-12 plus radiation 2 Gray on day 8
  Inhibition Relative to Placebo: 66%
[2]; rhLF alone 200 mg/kg oral once daily days 5-12
  Inhibition Relative to Placebo: 54%
[2]; rhLF plus radiation, P<0.05
  increase in TGI over monotherapy with rhLF: 28%
[2]; rhLF plus radiation, P=0.1207
  increase in TGI over monotherapy with radiation: 15%
IL-18; oral 65 mg/kg
  IL-18 Intestinal Extract % Increase Over Control: 725%
  IL-18 Serum % Increase Over Control: 84%
IL-18; [4]
  IL-18 Intestinal Extract % Increase Over Blf: 75%
  IL-18 Serum % Increase Over Blf: 94%
IL-18; [5]
  IL-18 Intestinal Extract: 7,879 pg
  IL-18 Serum: 259 pg
IL-18; oral 300 mg/kg
  IL-18 Intestinal Extract % Increase Over Control: 775%
  IL-18 Serum % Increase Over Control: 132%
IL-18; [6]
  IL-18 Intestinal Extract % Increase Over Blf: 85%
  IL-18 Serum % Increase Over Blf: 145%
IL-18; [7]
  IL-18 Intestinal Extract: 8,350 pg
  IL-18 Serum: 328 pg
IL-18; [8]
  effect on amount of IL-18 in the intestinal extract: significantly enhanced
  effect on amount of IL-18 in the serum: significantly enhanced
[3]; 30:1 E:T ratio, p<0.05
  relative increase of NK activity over placebo-treated animals: 243%
[3]; E:T ratio 3.7:1
  % Cytotoxicity Increased over ctrl: 0%
  % Cytotoxicity Final: 0%
[3]; E:T ratio 7.5:1
  % Cytotoxicity Increased over ctrl: 0%
  % Cytotoxicity Final: 0.44%
[3]; E:T ratio 15:1
  % Cytotoxicity Increased over ctrl: 1.3%
  % Cytotoxicity Final: 4.12%
[3]; E:T ratio 30:1
  % Cytotoxicity Increased over ctrl: 7** %
[3]; E:T ratio 30:1, 300 mg/kg/day
  % Cytotoxicity Final: 10% and 9.81%
[3]; E:T ratio 30:1, listed as RhLF, 300 mg/kg/day
  % Cytotoxicity Final: 9.81%
Circulating lymphocytes; [9]
  Number of Cells CD3+: 3291
  Number of Cells CD4+: 2621
  Number of Cells CD8+: 1054
Circulating lymphocytes; relative to placebo
  Increase with rhLF, CD3+: 56%
  Increase with rhLF, CD4+: 46%
  Increase with rhLF, CD8+: 34%
